The DeepSol protein solubility set

Assay: soluble on expression in E. coli; label from the status in PepcDB or PDB records

LEKMQAHGLDKVEYKVCTNPGMEPDSLNKIASGGELSRISLAIQMITAQKGSTPTLLFDEVDVGIGGSTAALVGKMLRKLGERLQVFCVTHQPQVAASAHHHFLVTKHSNNNQTFTHISLLKASDKIAEIARMMGGLTITEQTLSHAKELISLSNE
soluble on expression in E. coli: not soluble

SLGALGVIAFRRGYYYYVGSANSGVHRVKRHFSIKKKKRWHIDYISAKMEVVGAILSKEPECGLAQRFESFERIRGFGCSDCDCESHLFYSPTLNLEFLST
soluble on expression in E. coli: soluble

GMTRQRIAIDMDEVLADTLGAVVKAVNERADLNIKMESLNGKKLKHMIPEHEGLVMDILKEPGFFRNLDVMPHAQEVVKQLNEHYDIYIATAAMDVPTSFHDKYEWLLEYFPFLDPQHFVFCGRKNIILADYLIDDNPKQLEIFEGKSIMFTASHNVYEHRFERVSGWRDVKNYFNSIEK
soluble on expression in E. coli: soluble

SFARGLKRKCVGHEEDVEGALAGLKTVSSYSLQRQSLLDMSLVKLQLCHMLVEPNLCRSVLIANTVRQIQEEMTQDGTWRTVAPQAAERAPLDRLVSTEILCRAAWGQEGAHPAPGLGDGHTQGPVSDLCPVTSAQAPRHLQSSAWEMDGPRENRGSFHKSLDQIFETLETKNPSCMEELFSDVDSPYYDLDTVLTGMMGGARPGPCEGLEGLAPATPGPSSSCKSDLGELDHVVEILVET
soluble on expression in E. coli: not soluble

MTEQMWIEKLGLEAHPEGGYFKQTNKSEQLIPTKRGERALHTAILFLLNTESPSHFHRLKADELWFFHDGQPLTVHCIFPDGTYQAVQLGKDLVQGQQLSFSVPAGTIFGSTVATGFALVSCVVTPGFEFEDFELFTQAELLNDYPQHSEIIQHLAYRELPLEHHHHHH
soluble on expression in E. coli: soluble

MYILVTTGSMGFKRLFDAIVKSVIGKRIVIQTGKIDPTIYRNQNVTTFSFDPDLEKWIANASLVITHQGKTAMEAVVMYRKPVIMVYNNDWKSATTLSDAKKYAEILGATFLSDPITWSDYNVLLEAIENANEPNVFDTGTPNLVKHVLSEL
soluble on expression in E. coli: soluble

MGISDNDVQKQLRHMMAFIEQEANEKAEEIDAKAEEEFNIEKGRLVQQQRQKIMEFFEKKEKQVELQRKIQASNSLNAGRLRCLKAREDHIGAVLDEARSNLSRISGDAARYPAILKGLVMQGLLQLLEKEVVLRCREKDLRLVEQLLPECLDGLQKEWGSTTKVVLDKQNFLPSESAGGVELSARAGKIKVSSTLESRLELIANQIVPQVRTALFGPNPNRSFFD
soluble on expression in E. coli: not soluble

MGSDKIHHHHHHMRILEINTEKGWRGGENQTLLALIGFRKLGHEAELLCFENSALHVQAAAAGFTCHPLTSSTKSIGFLMEYGKNYSILHTQTSKQLTYCILTKPFHNSKVILSRRVDFVPKGFFTLLKYNACDGIICVSGAIEKILKQSGIKTRTVVISDCVTEKTLNKTRAQELLQKLTISGKNIIGTTAALVPHKDPVTLVNAVNILRTKRSDFVLLHFGSGPLAATIQQFITDNNLQDYYKLIGFKERVEDYFSIFNYFVMSSQEEGLGSSVLDAFVYKVPVVSTNAGGLNELVTGRGYVTEKKNAQLLAEALHTAMNSPEQNKKNVAAGYTYAVSNLSVEKIHEEHIDFFKTV
soluble on expression in E. coli: not soluble

MPQPKKDKPDTPLRSDAQRNRERILAVATEELTHCANAPLSAIAKKAGVGQGTFYRNFPNREALVLEIYRYGMQQVAEAAPEMLATGEPDLALRQWMDRLAEFAMTKAGLADAIRLVTSAPGAPEKPRPTPLEDAAELLLRANHEAGTIRPGVTGDDFFLVLGGLWLIDPGENWQPRVTRFLDLVMDGLRAGAPGR
soluble on expression in E. coli: not soluble

MGSDKIHHHHHHNRASAQTVSEKDATSTQAPVFLTYTVTKENETVEIVGQVTADTKKVTSKVSGDVLEIYVEEGDVVQVGQKIAKIDDTDYQISYLSALNSYKTSPTEINRLNLEKAKENLENTTVVSPVSGVVQAVNVDVGDRVSVGTSIVTIVETDTLRVEGSISEYDLKNVKEGMKAVFTFEQLGLTLTGKVKRISPVAETSGGVTVIPVEFSFDQTPPSLVIPGLTCDVEIIIKEATSSFFIPKEAVRQDQNGYYVMKQTPQGPQKVYVELGEELNDKIEIKKGVSEGDVLLLIPSQQEIQRLRTRQGLPMFGPGGGRAR
soluble on expression in E. coli: not soluble

MKNMLPAYIKIHDQIKKDIDEYRWAIGERLPSERDLAEQFAVSRMTLRQAVSLLVEEGVLERRVGSGTFVSSTRVQEKMRGTTSFTEIVKSQGKVPSSQLISYKKTIPNEQEVAKLGIFPTDNIIRMERVRYADQVPLVYEVASIPEKFIKDFKKEEITSHFFQTLQKHGYRIGKSQQTIYARLAKEKIAHYLEVEKGHAILGLTQVSYLEDGTAFEYVKSQYVGERFEFYLENN
soluble on expression in E. coli: not soluble

IIHEVQKEEACGNLTLQHHMLEPVQRIPRYELLLKDYLLKLPHGSPDSKDAQKSLELIATAAEHSNAAIRKMERMHKLLKVYELLGGEEDIVSPTKELIKEGHILKLSAKNGTTQDRYLILFNDRLLYCVPRLRLLGQKFSVRARIDVDGMELKESSNLNLPRTFLVSGKQRSLELQARTEEEKKDWVQAINSTLLKHEQTLETFKLLNSTNREDEDTPPNSPNVDLGKRAPTPIREKEVTMCMRCQEPFNSITKRRHHCKACGHVVCGKCSEFRARLVYDNNRSNRVCTDCYVALHGVPGSSPACSQHTPQRRRSILEKQASVAAENSVICSFLHYMEKGGKGWHKAWFVVPENEPLVLYIYGAPQDVKAQRSLPLIGFEVGPPEAGERPDRRHVFKITQSHLSWYFSPETEELQRRWMAVLGRAGRGDTFCPGPTLSEDREMEEAPVAALGATAEPPESPQTRDKT
soluble on expression in E. coli: soluble

MGSDKIHHHHHHMSTNISLFAQVIRLLPRPLIKKLSTEFQVDKHSKHFTSWQHLVSMIFSQFSSCISLREISNGLRSATGNLNHLGICTAPSKSNLSYQNEHRTSDFFRACYYALLDYFGQQGMGQGRKFRFKQPVKLLDSTTITLCLALYDWAKYTHTKGAVKLHTLLDFKTLLPEYVHISDGKGHDGKMANSIPIPAGSIVVADRGYADTALLNSWDSTQVSFVVRHPRSLKYEVIQELELPEHGHQQILVDQRVRLTGVQTQGKYTKPLRHIALYNEQHGDVVELLTNIDTLAASSIALLYRSRWLIEIFFRNLKQRLSMKAFLGTTRNAVEVQIWTALITMLLMVYLKSIAKYRWCLSNLVSSLRINTFTKMDLMQWLNEPFTPPPEPENQLF
soluble on expression in E. coli: not soluble

MSLSERTFNWKNKDIRAQVDVVDSKLLPTLLLRNALVLNPYVKQWLKKNIWIYQDRIVYVGHELPNRAEEIHTIDCEGKYIVPGYIEPHAHPFQIYNPQTLAEYVSQYGTTTFVNDNLFLLLQSGKKKALTILNELKKQPVQYFWWSRYDLQTEVLNEDHVLPFDVRKQWIEHPDVIQGGEMTGWPRLVDGDDLMLHCMQATKKQRKRIEGHFPGASDKTLTKMKLFGADCDHEAMTGDEVMRRLELGYYVSLRNSSIRPDVRKILQELHEKGFRYYDHFFYTTDGATPNFYKGGMTNELIRIALEEGVPAIDAYNMASFNIAKYYQMDDYLGVVGPGRLASLNILEDPLNPNPVTVLSKGTILRENGCDLKAFTKTDWHKGGLVPLELSYDMTMDDLQFSMPMGVKMRNAVIMEPYMIEIDNSMEQLSFDHDESYLTMLDRHGKWRVNTMIKGFASSVQGFVSSFTTTGDIVAIGKNKADMLLAFARMKEIGGGIVLAENGNILHEIPLALCGCASSEAYEDVLEKEQKLRDLLTERGYEFCDPIYTLLFLQSTHLPYIRITPRGIFDVMKKTVLFPSIMREGHHHHHH
soluble on expression in E. coli: not soluble

MSLAEINKNEVDIVIGALNADLTQFLTSWRPFFSGFHLIVVKDPELKEELNIPEGFDVDVYSKTDMEKVVGASNSTMFSGYSCRYFGYLVSKKKYIVSIDDDCVPAKDPKGFLVDAVTQHVINLENPATPLFFNTLYDPYCEGADFVRGYPFSLRSGVPCAASCGLWLNLADLDAPTQALKTEKRNTAYVDAVMTVPAKAMLPISGINIAFNRELVGPALVPALRLAGEGKVRWETLEDVWCGMCLKHISDHLGYGVKTGLPYVWRNERGDAVESLRKKWEGMKLMEKSVPFFDSLKLPETALKVEDCVIELAKAVKEQLGSDDPAFTQAADAMVKWVQLWNSVNSSA
soluble on expression in E. coli: soluble

MGSDKIHHHHHHMIKVAAAGGGTGGHLYPLLAILETLAKRVDVKVLFFAVKGKIDERVVRKDHPEFETVSIDVRGLLRPLHHPKNLWRTLKIGIATIEVKKHLKRFKPDLVVLTGGYISGVVGLAAKDLGIPIFVHEQNVVPGLAVKVLSQYAKKVFVSFERTRDYLREWQDKIVVTGCPVRETEKEAPLKDFVLVLGGSLGSEAINELMEKVYPELQETQFVHSTGSDDWTERLSVFPNVTALTYIDPMGAYWKKAIASISRAGASTIAEMMYYGVPGILIPWESSAESHQLENALEAERLGYAIVIRENEASPRKIIESIDKVVKKGKIEKMKENPASKISKEILGEIM
soluble on expression in E. coli: not soluble

MASSSSSSEHKVFLSFRREDTGRTFVSHLYRSLDQKEIRTYKFENQQAGDGKRISSEVKQAINESRIAVVVISENYVSSVLCLDVLAKIIERLPLIKIETVFYEVDPGDLTRPTGKFADDFRRHEARENRRTVNRWRDALDQLVSITNSNFCSRNWEDDSKMIDDLIIRLINIYFSKYYTPDVDIIAETTVGLDASVLGLMTDIDMKYKLNSLSGSVESGFGLERYALEATSVMDDMSNESPSPTSDDSNGLVGMYRHKKAVYGLLDLESKNQVRTIGIWGFQGVGKTTLAECVFDDISSHFQHYCFLTNANKIYQNRISPSLLKHLTRRRSSEDIFDAIKPSLVNRKVLFVVDGVDATYNEQFNDAMKVTRWLGPGSRIIMTSRFKSSLKFGGAKYEMECLRYEEALQLFSLYAFKKTYPLIGFELFSIRAVHFAGRLPLSLKVLGSFLYDKDEESWKRTLHKLEASQDNDRRYVSNYIGAGEYLPRRQIELEQYVSPDEEEYSPSYIMSL
soluble on expression in E. coli: soluble

AIAPGRKRKLAAKTAELAPEAGEGSESTSLVGSADASASTAAGVAHTEQQEMPSGGLHESFLESIPPAASFLEELAWVESLASPSYVAYLCQMRRFDDVVAQRRLTTLQRWRQDPAYRQHVSQPIALFFLEQLCSAEFREALRHPAVAALYERQVDLYRRCYGNLLNTGESRVLR
soluble on expression in E. coli: soluble

MAHHHHHHMSAAAADYPLRRGGDVEDDVDDEERRRLTESSIKAFLEEEGVPVRSSVTVEDITSALVALANSVATASACLAVKVALLRLDCLTAVEGELRKDATRASSSKVRVTAEKSPSPRMTRASAFGWLRHLHQEGKGVCGVLRGGKAELGFVLASFVEEALLFAAMRSLMDRLGPLLPSENGRAGGAAALWWAGLSRTVAPTFVMSLLSWPLRAVRTTIRVNYMADTSLPVCEPSLQPAQQQGEQQQRRQHRYTSATEVWGCVLHRMGVRSLLLNGLDVDFASRALSLGLAWTVVKPASRWMQRWAMMSASTAGAASAPLALVRLGQHRLFALGVLLAVAGSVNALQRPFVVLRQRMALLPVADAESVCNGDDDQTKTPPTARRGCRYANGWDCAVQVWRQEGVSGLLAGLPLCLITSSVVPLLRTFAGYPTAPSFSGAVV
soluble on expression in E. coli: not soluble
